For experiment [1], the target named is T1, soluble human GCGR extracellular domain (human, UniProt P47871 26-136, limits assumed).
T1 construct: also called soluble GCGR
In words: Octet epitope binning; antibody in solution on GCGR ECD held by immobilized 1C3 (competitor). The protocol:
(§1) KD values for exemplary antibodies were derived using ForteBio software. Exemplary antibodies 6B5, 13G19, 14E9, 14F4, 4F8, 1G7, l A8, I H7, 1A2, 1B4, 1C1, 1H2, 1C3, and 1D2 were immobilized on biosensor tips. Soluble human GCGR extracellular domain (500 nM) was incubated with the antibodies for 3 minutes. […] The biosensor tips with bound antibody-GCGR complex were then dipped in 61B5, 5B11, or 3H-15 antibody solution and the change in signal measured as a nm shift. If the antibody in solution recognized the same epitope as the antibody immobilized on the chip surface, then <0.1 nm shift in signal (noise level of Octet) would be observed. If the antibody in solution recognized a distinct epitope relative to the immobilized antibody, an increase in signal of >0.15 nm shift would be observed. In the latter scenario, the antibody in solution could bind to the immobilized antibody-GCGR complex (presumably to a different epitope) resulting in the observed increase in signal.
(In general: Biolayer interferometry detects binding as a change in optical thickness at a sensor tip.)

For experiment [2], the target named is T1, soluble human GCGR extracellular domain. Kind of experiment: Octet epitope binning; antibody in solution on GCGR ECD held by immobilized 14F4 (competitor). The protocol: as §1
For experiment [3] the target is unchanged. In words: Octet epitope binning; antibody in solution on GCGR ECD held by immobilized 1G7 (competitor). The protocol:
as §1

The target is the same in experiment [4]. In words: Octet epitope binning; antibody in solution on GCGR ECD held by immobilized 1B4 (competitor). The protocol:
as §1

The target is the same in experiment [5]. In words: Octet epitope binning; antibody in solution on GCGR ECD held by immobilized 4F8 (competitor). The protocol:
as §1

For experiment [6] the target is unchanged. In words: Octet epitope binning; antibody in solution on GCGR ECD held by immobilized 14E9 (competitor). The protocol:
as §1

Experiment [7] shares this target. Kind of experiment: Octet epitope binning; antibody in solution on GCGR ECD held by immobilized 6B5 (competitor). As for the experimental part:
as §1

Experiment [8] has the same target. In words: Octet epitope binning; antibody in solution on GCGR ECD held by immobilized 1H7 (competitor). As for the experimental part: as §1
For experiment [9] the target is unchanged. In words: Biacore SPR, captured antibody, soluble human GCGR extracellular domain as analyte. As for the experimental part: In some experiments, supernatants were screened for binding to human GCGR using a Biacore SPR system. Briefly, anti-mouse Fc antibody (Sigma-Aldrich) was immobilized on all four flow cells of a CM5 chip using amine coupling reagents (GE Healthcare LifeSciences). Hybridoma supernatants were diluted three-fold with PBS-P buffer (PBS containing 0.005% P20) and injected for 30 seconds overflow cells 2, 3 and 4 to capture the test antibodies and using flow cell 1 as a reference. The next step was an injection of soluble human GCGR extracellular domain (100 nM in PBS-P buffer) at a flow rate of 50 μL/min and monitoring of the binding kinetics at 25° C. Kinetic data were collected over time and fit using the simultaneous global fit equation to yield affinity constants (KD values) for each antibody.
On the technique in general: Surface plasmon resonance follows binding to a sensor surface in real time, without labels.

Experiment [10] has the same target. In words: Octet epitope binning; antibody in solution on GCGR ECD held by immobilized 1D2 (competitor). As for the experimental part: as §1
Experiment [11] deals with full-length human GCGR on CHO cells (human, UniProt P47871 26-477). In words: cell-based or functional assay.
Sequence of full-length human GCGR on CHO cells (P47871 26-477): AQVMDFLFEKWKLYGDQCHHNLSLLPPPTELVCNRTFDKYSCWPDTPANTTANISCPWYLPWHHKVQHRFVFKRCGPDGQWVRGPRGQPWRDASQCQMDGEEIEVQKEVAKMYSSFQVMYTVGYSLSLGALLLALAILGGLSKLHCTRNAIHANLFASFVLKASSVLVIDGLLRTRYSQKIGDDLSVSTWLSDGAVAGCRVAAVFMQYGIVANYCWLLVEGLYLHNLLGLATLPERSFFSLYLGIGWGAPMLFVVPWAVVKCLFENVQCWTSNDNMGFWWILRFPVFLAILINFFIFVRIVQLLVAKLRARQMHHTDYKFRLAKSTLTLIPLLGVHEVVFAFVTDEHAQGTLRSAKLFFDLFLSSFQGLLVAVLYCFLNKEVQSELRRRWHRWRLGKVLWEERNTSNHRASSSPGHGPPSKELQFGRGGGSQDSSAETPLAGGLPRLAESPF
Experiment [12] addresses T1, soluble human GCGR extracellular domain. Kind of experiment: Octet epitope binning; antibody in solution on GCGR ECD held by immobilized 13G9 (competitor). As for the experimental part: as §1
Experiment [13] shares this target. In words: Octet epitope binning; antibody in solution on GCGR ECD held by immobilized 1C1 (competitor). The protocol: as §1
Experiment [14] shares this target. In words: Octet epitope binning; antibody in solution on GCGR ECD held by immobilized 1A8 (competitor). The protocol:
as §1

Experiment [15] shares this target. Kind of experiment: Octet epitope binning; antibody in solution on GCGR ECD held by immobilized 1H2 (competitor). The protocol: as §1
The target is the same in experiment [16]. In words: Octet epitope binning; antibody in solution on GCGR ECD held by immobilized 1A2 (competitor). As for the experimental part:
as §1

T1 sequence (P47871 26-136 limits assumed): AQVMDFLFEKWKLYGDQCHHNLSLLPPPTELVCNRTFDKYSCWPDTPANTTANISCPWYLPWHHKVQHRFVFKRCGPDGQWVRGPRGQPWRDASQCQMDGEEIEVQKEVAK

B1: anti-GCGR antibody 5B11 (antibody, V domains shown)
VH: QVQLQQSGAELVKPGASVKLSCKASGNTFTSHWMHWVKQRPGQGLEWIGMSHPNSGSSNYSGKFKSKATLTVDRSSSTAYMQLNSLTSEDSAVYYCARTDYDYDGDYWGQGTTLTVSS
VL: DVVLTQTPLSLPVNIGDQASISCKSSKSLLNSDGLTYLDWYLQKPGQSPQLLIYLVSNRFSGVPDRFSGSGSGTDFTLKISRVEADDLGVYYCFQSNFLPLTFGAGTKLELK
notes: mouse hybridoma monoclonal antibody
In general, Kd refers to the free concentration of one partner at which half of the binding sites on the other are occupied at equilibrium, for simple one-to-one binding. A high value points to a looser complex. B1: the “Shift on Octet by Antibody in Solution (nm)” value (“Shift on Octet by Antibody” below) in experiment [1], in [2], in experiment [3], in [4], in experiment [5] and in experiment [6] was less than 0.05 nm in each case. The “Shift on Octet by Antibody” value in experiment [7], in [8], in experiment [10], in experiment [12], in experiment [13] and in experiment [14] was less than 0.05 nm throughout. For the same molecule, the “Shift on Octet by Antibody” value in experiment [15] and in [16] was less than 0.05 nm each time. Also, binding in experiment [9] was put at a Kd of 1.2 nM. For the same molecule, the “cAMP assay-1 IC50” value in experiment [11] worked out at 7.22 nM.

B2: anti-GCGR antibody 1H2 (antibody, V domains shown)
VH: QVQLQQPGAELVKPGASVKMSCKVSGYTFTSYWITWVKQRPGQGLEWIGDIHPGGGDTNYNKKFKSKATLTVDTSSSTAYMQLSSLTSEDSAVYHCTSDDNYVGFTYWGQGTLVTVSA
VL: DVLMTQTPLSLPVSLGDQASISCRSSQTIIHSDGNTYLEWYLQKPGQSPILLIYKVSNRFSGVPDRFSGSGSGTDFTLKISRVEAEDLGVYYCFQGSHVPWTFGGGTKLEIK
notes: as for B1
In [9], B2 had a Kd of 3.7 nM. Besides, the “cAMP assay-1 IC50” value in [11] was 3.78 nM.

B3: anti-GCGR antibody 13G9 (antibody, V domains shown)
VH: QVQLQQSGAELVRPGTSVKISCKASGYTFTNYWLGWVKQRPGHGLEWIGDIYPGGDYNNYNGKFKGKATLTADTSSSTAYIQLSSLTSEDSAVYFCVRSDDGYSWGQGTTLTVSS
VL: DVLMTQTPLSLPVSLGDQASISCRSSQSIVDSYGNTYLEWYQQKPGQSPTLLIYKVSNRFAGVPDRFSGSGSGTDFTLKISRVEAEDLGVYYCFQGSHIPWTFGGGTKVEIK
notes: mouse hybridoma monoclonal antibody; also called 13G19
In [9], B3 yielded a Kd of 0.25 nM. Also, in experiment [11], the “cAMP assay-1 IC50” value stood at 7.22 nM and the “cAMP assay-3 IC50” value was 0.99 nM.

B4: anti-GCGR antibody 6B5 (antibody, V domains shown)
VH: QVQLQQSGTELVRPGTSVKISCKASGFTFTNHWLGWVKQRPGHGLEWIGDIYPGGYYINYNEKFKGKATLTADTSSSTAYMQLSSLTSEDSAVYFCARHTNYGSDYWGQGTTLTVSS
VL: DVLMTQIPLSLPVSLGDQASISCRSSQSIVDSYGNTFLEWYLQKPGQSPKLLIYKVSNRLSGVPDRFSGTGAGTDFTLKISRVEAEDLGIYYCFQGSHVPWTFGGGTKLEIK
notes: mouse hybridoma monoclonal antibody; also called 61B5
B4: the “Shift on Octet by Antibody” value in experiment [1], in experiment [2], in experiment [3], in experiment [4], in experiment [5] and in experiment [6] was less than 0.05 nm throughout. The “Shift on Octet by Antibody” value in [7], in experiment [8], in [10], in experiment [12], in [13] and in experiment [14] was less than 0.05 nm throughout. Moreover, the “Shift on Octet by Antibody” value in [15] and in [16] was less than 0.05 nm each time. Besides, the affinity in [9], expressed as Kd, was 0.22 nM. In addition, the “cAMP assay-1 IC50” value in [11] is 6.42 nM. In addition, the “cAMP assay-2 IC50” value in experiment [11] is 12.3 nM. Moreover, the “cAMP assay-3 IC50” value in experiment [11] amounted to 2.07 nM.

B5: anti-GCGR antibody 14E9 (antibody, V domains shown)
VH: QVQLQQSGAELVRPGTSVKMSCKAAGYTFTNYWIGWVKQRPGHGLEWIGDISPGNYYTNYNAKFKDKVSLTADTSSSTAYMQLSSLTSEDSAIYYCARYDEFAYWGQGTLVTVSA
VL: DVLMTQTPLSLSVSLGDQASISCRSSQSIVHSDGNTYLEWYLQKPGQSPKLLIYKVSNRFSGVPDRFSGSGSGTDFTLKISRVEAEDLGVYYCFQGSHVPWTFGGGTKLEIK
notes: mouse hybridoma monoclonal antibody; also called 13E9
In experiment [9], B5 displayed a Kd of 0.8 nM. Further, in [11], the “cAMP assay-1 IC50” value stood at 24.6 nM and the “cAMP assay-3 IC50” value amounted to 1.32 nM.

B6: anti-GCGR antibody 14F4 (antibody, V domains shown)
VH: QVQLQQSGAELVRPGTSVNMSCKATGYTFTNYWIGWVKQRPGHGLEWIGDIFPGGFYSNYNEKFKGKATLTTDTSSSTGYMQLSSLTSEDSAIYYCARIWDRGFDYWGQGTTLTVSS
VL: DVLMTQSPLSLPVSLGDQASISCRSSQSIVDSYGNTYLEWYLQKPGQSPKLLIYKVSNRFSGVPDRFSGSGSGTDFTLKISRVEAEDRGLYYCFQGSHVPYTFGGGTKLEIK
notes: mouse hybridoma monoclonal antibody; also called 141F4
B6: in experiment [9], the Kd was 0.57 nM. Further, in experiment [11], the “cAMP assay-1 IC50” value came to 16 nM and the “cAMP assay-3 IC50” value worked out at 6.48 nM.

B7: anti-GCGR antibody 4F8 (antibody, V domains shown)
VH: QVQLQQSGAELVRPGTSVTMSCKAAGYTFSNYWIGWVKQRPGHGLEWIGDIYPGGFYDNYNDKFKGKATLTTDTSSSTAYMQLSSLTSEDSAIYYCTRSGGLPGAGFTYWGQGTLVTVSA
VL: DVLMTQTPLSLPVSLGDQASISCRSSQHIVYSDGNTYLEWYLQKPGQSPKLLIYKVSNRFSGVPDRFSGSGSGTDFTLEISRVEAEDLGVYYCFQGSHVPWTFGGGTKLEIK
notes: as for B1
As to B7, binding in experiment [9] was characterised by a dissociation constant (Kd) of 0.5 nM. For the same molecule, the “cAMP assay-3 IC50” value in [11] worked out at 3.84 nM.

B8: anti-GCGR antibody 1C1 (antibody, V domains shown)
VH: EVQLQQSGPELVKPGATVKMSCKASGYTFTRNVIHWVKQKPGQGLEWIGYINPYNDGAKYNAKFKGKATVTSDKSSSTAYMELSSLTSEDSAVYYCARWGNYEDFAMDYWGQGTSVTVSS
VL: NIVLTQSPPSLAVSLGQRATISCRASESVDIYGNSYMHWYQQKPGQPPKLLIYLASNLESGVPARFSGSGSRTEFSLTIDPVEAGDAATYYCQQNNEDPFTFGGGTKLEIK
notes: as for B1
In the case of B8, the equilibrium dissociation constant (Kd) in [9] was 1.9 nM. Moreover, the “cAMP assay-2 IC50” value in experiment [11] came out at 14.3 nM.

B9: anti-GCGR antibody 1C3 (antibody, V domains shown)
VH: EVQLQQSGPELVKPGASVKMSCKASGYTFTSSVMHWVKQKPGQALEWIGYINPYNDGTKYNENFKGKATLTSDRSSTTAYMELSSLTSEDSAVYYCVTGAGYDRGPMAMDYWGQGTSVTVSS
VL: NIVLTQSPASLAVSLGQRATISCRASESVDSYGDSFVHWYQQKPGQPPKLLIYFASNLESGVPARFSGSGSRTDFTLTIDPVEADDTATYYCQQNNEVPFTFGSGTKLELK
notes: as for B1
Molecule B9 came in with a Kd in experiment [9] of 1.4 nM. For the same molecule, in experiment [11], the “cAMP assay-1 IC50” value turned out to be 6.42 nM and the “cAMP assay-2 IC50” value was 13.6 nM.

These data come from US20240084023A1 (NGM BIOPHARMACEUTICALS, published 2024).
